Target: MBP-16E6(4C4S) (MBP-GGGGS-TEV-16E6, construct used in SPR) (HPV16, UniProt P03126 1-158, C87S | C104S | C118S | C147S)
Assay: SPR

B1: full-length human E6AP (C-terminal TEV-6xHis-Avi) (enzyme)
chain: MEKLHQCYWKSGEPQSDDIEASRMKRAAAKHLIERYYHQLTEGCGNEACTNEFCASCPTFLRMDNNAAAIKALELYKINAKLCDPHPSKKGASSAYLENSKGAPNNSCSEIKMNKKGARIDFKDVTYLTEEKVYEILELCREREDYSPLIRVIGRVFSSAEALVQSFRKVKQHTKEELKSLQAKDEDKDEDEKEKAACSAAAMEEDSEASSSRIGDSSQGDNNLQKLGPDDVSVDIDAIRRVYTRLLSNEKIETAFLNALVYLSPNVECDLTYHNVYSRDPNYLNLFIIVMENRNLHSPEYLEMALPLFCKAMSKLPLAAQGKLIRLWSKYNADQIRRMMETFQQLITYKVISNEFNSRNLVNDDDAIVAASKCLKMVYYANVVGGEVDTNHNEEDDEEPIPESSELTLQELLGEERRNKKGPRVDPLETELGVKTLDCRKPLIPFEEFINEPLNEVLEMDKDYTFFKVETENKFSFMTCPFILNAVTKNLGLYYDNRIRMYSERRITVLYSLVQGQQLNPYLRLKVRRDHIIDDALVRLEMIAMENPADLKKQLYVEFEGEQGVDEGGVSKEFFQLVVEEIFNPDIGMFTYDESTKLFWFNPSSFETEGQFTLIGIVLGLAIYNNCILDVHFPMVVYRKLMGKKGTFRDLGDSHPVLYQSLKDLLEYEGNVEDDMMITFQISQTDLFGNPMMYDLKENGDKIPITNENRKEFVNLYSDYILNKSVEKQFKAFRRGFHMVTNESPLKYLFRPEEIELLICGSRNLDFQALEETTEYDGGYTRDSVLIREFWEIVHSFTDEQKRLFLQFTTGTDRAPVGGLGKLKMIIAKNGPDTERLPTSHTCFNVLLLPEYSSKEKLKERLLKAITYAKGFGML
modifications: biotin on the Avi tag (BirA biotin-protein ligase) in the SPR experiments
Which koff does the source give for B1 here?
The koff was 0.0004 s⁻¹.
